These results are taken from the PETadex activity labels.

B1: unnamed (protein)
chain: MNFPRASRLMQAAVLGGLMAVSAAATAQTNPYARGPNPTAASLEASAGPFTVRSFTVSRPSGYGAGTVYYPTNAGGTVGAIAIVPGYTARQSSIKWWGPRLASHGFVVITIDTNSTLDQPSSRSSQQMAALRQVASLNGTSSSPIYGKVDTARMGVMGWSMGGGGSLISAANNPSLKAAAPQAPWDSSTNFSSVTVPTLIFACENDSIAPVNSSALPIYDSMSRNAKQFLEINGGSHSCANSGNSNQALIGKKGVAWMKRFMDNDTRYSTFACENPNSTRVSDFRTANCS
B2: unnamed (protein)
chain: MKEGKHFVLVHGACHGGWSWYKLKPLLEAAGHKVTALDLAASGTDLRKIEELRTLYDYTLPLMELMESLSADEKVILVGHSLGGMNLGLAMEKYPQKIYAAVFLAAFMPDSVHNSSFVLEQYNERTPAENWLDTQFLPYGSPEEPLTSMFFGPKFLAHKLYQLCSPEDLALASSLVRPSSLFMEDLSKAKYFTDERFGSVKRVYIVCTEDKGIPEEFQRWQIDNIGVTEAIEIKGADHMAMLCEPQKLCASLLEIAHKYN
B3: unnamed (protein)
chain: B2 chain with G12T
B4: unnamed (protein)
chain: B2 chain with G12T, M239K
B5: unnamed (protein)
chain: MFGKLPFARASLAVGALLLSAAAVAQTNPYQRGPDPTVSSLEATRGPFSTSSFTVSRPSGYGAGTVYYPTNAGGKVGAIAVVPGYTARQSSINWWGPRLASHGFVVITIDTNSTLDQPSSRSSQQMAALRQVVSLAGTSSSPIYNKVDTARLGVMGWSMGGGGSLISAKNNPSLRAAAPQAPWAQESFSSVTVPTLIVSCENDSIAPNSSHSFPFYNQMTRNKKANLVINGGSHSCANSGNSDAGLIGKYGVAWMKRFMDDDTRYSKFLCGAEHQADLSKRAVEAYKENCPY
B6: unnamed (protein)
chain: MFNQIGKKSALSLMAAGSLMFSATALAIGGGGSGGGNNGGGGGCEADCGYERGPDPSVSLLEASTGPFSVRTSNVSSSVRGFGGGTIHYPTNTTGTMAAIVVIPGFVSPESSIAWWGPKLASHGFVVMTIGTNSGFDQPASRASQLNNALDYLIEQNGSSRSPINGMIDTDRLGVMGWSMGGGGTLRVATEGRVSAAIPLAPWDSSSSQFRSIDTPTLIFACENDSTAPVRSHADPFYDAIPDSTAKAFVELDGGGHTCANGSSGFGGSYNDVLSRLGVSWMKLHLDKDQRYNQFVCGPNHESDRSISEYRGTCPY
B7: unnamed (protein)
chain: MTHQIVTTQYGKIKGTTENGVHKWKGIPYAKPPVGQWRFKAPEPPEVWEDVLDATAYGPVCPQPSDLLSLSYAELPRQSEDCLYVNVFAPDTPSQNLPVMVWIHGGAFYLGAGSEPLYDGSKLAAQGEVIVVTLNYRLGPFGFLHMSSFDEAYSDNLGLLDQAAALKWVRENISAFGGDPNNVTVFGESAGGMSIAALLAMPAAKGLFQKAIMESGASRTMTKEQAASTAAAFLQVLGINESQMDRLHTVAAEDLLKAADQLRIAEKENIFQLFFQPALDPKTLPAEPEKAIAEGAASGIPLLIGTTRDEGYLFFTPDSDVHSQETLDAALEYLLGKPLAEKAADLYPRSLESQIHMMTDLLFWRPAVAYASAQSHYAPVWMYRFDWHPEKPPYNKAFHALELPFVFGNLDGLERMAKAEVTDEVKQLSHSIQTAWITFAKTGNPSTEAVNWPAYQEETRETLILDSKITIENDPESEKRQKLFPSKGEAALEHHHHHH
B8: unnamed (protein)
chain: MERTVVETRYGRLRGGTNESVFVWKGIPYAKAPVGERRFLPPEPPDAWDGVREAAAFGPVVMQPSDPIFSGLLGRMSEAPSEDGLYLNIWSPAADGKKRPVLFWIHGGAFLFGSGSSPWYDGTAFAKHGDVVVVTINYRMNVFGFLHLGDLFGEAYAQAGNLGILDQVAALRWVKENIEAFGGDPDNITIFGESAGAASVGVLLSLSEASGLFRRAILQSGSGALLLRSPKTAMAMTERILERAGIRPGDRGRLLSIPSEELLRSALSLGPGIMYGPVVDGRVLRRHPIEALCDGAASGIPILIGVTKDEYNLFTLTDPSWTKLGEKELLDRINREVGPVPEAAIRYYAETAEPSAPDWQTWLRIMTYRVFVEGMLRTADAQAAHGADVYMYRFDYETPVFGGQLKACHALELPFVFHNLHQPGVANFVGNRPEREAIANEMHYAWLSFARTGDPNGDHLPEAWPAYTSERKAAFVFSAASHVEDDPFGRERAAWMTRT
B9: unnamed (protein)
chain: MESQVRGGTRWKRFAVVMVPSVAATAAIGVALAQGALAASFSVSGQSFKVTAQELNGTGFSQYGAIDQGYTLSGEKTAHPVAVSVFDTARIQKMCQSVVTPNIPLLGSVSLTLTAGDSADPEKQVNAKNLYIDVEDLGADAEFTNIDIGVAGKDISQGPGMKAGEVQKKQANPYGFAQQAEKAKLTDVKQTAWATTAGTFKLPGLKMKLQTGTHECY
B10: unnamed (protein)
chain: MAKEILVAYGVDIDAVAGWLGSYGGEDSPDDISRGLFAGEVGIPRLLKLFKKYHLPATWFSPGHSIETFSEQMKMIVDAGHEVGAHGYSHENPIAMTAKQEEDVLLKSVELIKDLTGKAPTGYVAPWWEFSNITNELLLKHGFKYDHSLMHNDFTPYYVRVGDSWSKIDYSLEAKDWMKPLIRGVETDLVEIPANWYLDDLPPMMFIKKSPNSFGFVSPHDIGQMWIDQFDWVYREMDYAVFSMTIHPDVSARPQVLLMHEKIIEHINKHEGVRWVTFNEIADDFLKRNPRKK
B11: unnamed (protein)
chain: MAVMTPRRERSSLLSRALQVTAAAATALVTAVSLAAPAHAANPYERGPNPTDALLEASSGPFSVSEENVSRLSASGFGGGTIYYPRENNTYGAVAISPGYTGTEASIAWLGERIASHGFVVITIDTITTLDQPDSRAEQLNAALNHMINRASSTVRSRIDSSRLAVMGHSMGGGGTLRLASQRPDLKAAIPLTPWHLNKNWSSVTVPTLIIGADLDTIAPVATHAKPFYNSLPSSISKAYLELDGATHFAPNIPNKIIGKYSVAWLKRFVDNDTRYTQFLCPGPRDGLFGEVEEYRSTCPF
B12: unnamed (protein)
chain: MTHQIVTTQYGKIKGTTENGVHKWKGIPYAKPPVGQWRFKAPEPPEVWEDVLDATAYGPVCPQPSDLLSLSYAELPRQSEDCLYVNVFAPDTPSQNLPVMVWIHGGAFYLGAGSEPLYDGSKLAAQGEVIVVTLNYRLGPFGFLHMSSFDEAYSDNLGLLDQAAALKWVRENISAFGGDPNNVTVFGESAGGMSIAALLAMPAAKGLFQKAIMESGASRTMTKEQAASTAAAFLQVLGINESQMDRLHTVAAEDLLKAADQLRIAEKENIFQLFFQPALDPKTLPAEPEKAIAEGAASGIPLLIGTTRDEGYLFFTPDSDVHSQETLDAALEYLLGKPLAEKAADLYPRSLESQIHMMTDLLFWRPAVAYASAQSHYAPVWMYRFDWHPEKPPYNKAFHALELPFVFGNAEVTDEVKQLSHSIQTAWITFAKTGNPSTEAVNWPAYQEETRETLILDSKITIENDPESEKRQKLFPSKGEAALEHHHHHH

Numbering of substitutions follows the chain as printed.

Substrate in one data set: p-NP-C2
Particulars: pH 7; 30 °C; part of the chain shown.
Take B1: the Km came out at 4600 µM, the catalytic constant (kcat) amounted to 27 s⁻¹ and the kcat/Km worked out at 5870 M⁻¹ s⁻¹.

The data set is the same for the next values; noted with them: pH 7.2; 25 °C.
For the protein B2, the Km is 1400 µM, the kcat came to 2 s⁻¹ and the kcat/Km was found to be 1430 M⁻¹ s⁻¹.

For the protein B3, the Km turned out to be 8700 µM, the kcat turned out to be 0.0283 s⁻¹ and the kcat/Km came to 3.26 M⁻¹ s⁻¹.

For B4, the Michaelis constant (Km) was found to be 7600 µM, the kcat amounted to 0.025 s⁻¹ and the kcat/Km is 3.29 M⁻¹ s⁻¹.

Substrate in the next data set: BHET
To be noted: 48.5 °C.
With B5, the turnover number (kcat) was found to be 28.5 s⁻¹.

Substrate in a further data set: p-NP-C2
Particulars: 20 °C.
Regarding B6, the Km was determined as 2100 µM, the kcat stood at 4.74 s⁻¹ and the kcat/Km worked out at 2260 M⁻¹ s⁻¹.

Substrate in the next data set: BHET
To be noted: pH 7.5; 30 °C.
Regarding B7, the Km is 100 µM, the kcat turned out to be 37.7 s⁻¹ and the kcat/Km came to 377000 M⁻¹ s⁻¹.

In the case of B12, the Km was 80 µM, the kcat amounted to 102 s⁻¹ and the specificity constant (kcat/Km) was found to be 1.28e+06 M⁻¹ s⁻¹.

Substrate in a further data set: p-NP-C12
Particulars: pH 7.4; 60 °C.
In the case of B8, the Km turned out to be 22800 µM, the kcat was found to be 0.993 s⁻¹ and the kcat/Km worked out at 43.7 M⁻¹ s⁻¹.

Still in this data set, the particulars now being: pH 7; 37 °C.
In the case of B9, the Km stood at 4300 µM, the kcat amounted to 1.4 s⁻¹ and the kcat/Km came out at 326 M⁻¹ s⁻¹.

Substrate in another data set: p-NP-C14
To be noted: pH 7; 37 °C.
For the protein B9, the Km came to 1100 µM, the kcat turned out to be 4.5 s⁻¹ and the catalytic efficiency (kcat/Km) is 4090 M⁻¹ s⁻¹.

Substrate in a further data set: p-NP-C16
To be noted: pH 7; 37 °C.
For the protein B9, the Km was found to be 2100 µM, the kcat was found to be 2.9 s⁻¹ and the kcat/Km was found to be 1380 M⁻¹ s⁻¹.

Substrate in another data set: p-NP-C2
Particulars: pH 6; 30 °C.
As for B10, the Km was 180 µM, the kcat was determined as 20.2 s⁻¹ and the kcat/Km is 112000 M⁻¹ s⁻¹.

Substrate in the next data set: BHET
To be noted: pH 8.5; 60 °C.
For the protein B11, the Km came to 39700 µM, the turnover number (kcat) amounted to 26.8 s⁻¹ and the specificity constant (kcat/Km) is 674 M⁻¹ s⁻¹.

Substrate in another data set: MHET
Particulars: pH 8.5; 60 °C.
In the case of B11, the Km came to 7330 µM, the turnover number (kcat) worked out at 0.31 s⁻¹ and the kcat/Km worked out at 42.3 M⁻¹ s⁻¹.

Substrate in a further data set: p-NP-C4
Particulars: pH 8; 20 °C.
For B11, the Km was 312 µM, the kcat was found to be 304 s⁻¹ and the kcat/Km was found to be 973000 M⁻¹ s⁻¹.

Staying with this data set, now noted: pH 8; 60 °C.
Regarding B11, the Michaelis constant (Km) was determined as 505 µM, the kcat was 742 s⁻¹ and the kcat/Km was 1.47e+06 M⁻¹ s⁻¹.

By Km is commonly meant the substrate concentration at which the rate is half of its maximum. Broadly, the kcat is the number of substrate molecules converted per active site and unit of time at saturation. For orientation: kcat/Km means the turnover number divided by the Michaelis constant.
